The source of these data is US20210069244A1.

This assay has as its target CD19 antigen on CD19 positive RS4;11 and Raji cells (human) (UniProt P15391). The assay is described as follows: cell-based or functional assay.
Sequence of UniProt P15391 (P15391 20-556): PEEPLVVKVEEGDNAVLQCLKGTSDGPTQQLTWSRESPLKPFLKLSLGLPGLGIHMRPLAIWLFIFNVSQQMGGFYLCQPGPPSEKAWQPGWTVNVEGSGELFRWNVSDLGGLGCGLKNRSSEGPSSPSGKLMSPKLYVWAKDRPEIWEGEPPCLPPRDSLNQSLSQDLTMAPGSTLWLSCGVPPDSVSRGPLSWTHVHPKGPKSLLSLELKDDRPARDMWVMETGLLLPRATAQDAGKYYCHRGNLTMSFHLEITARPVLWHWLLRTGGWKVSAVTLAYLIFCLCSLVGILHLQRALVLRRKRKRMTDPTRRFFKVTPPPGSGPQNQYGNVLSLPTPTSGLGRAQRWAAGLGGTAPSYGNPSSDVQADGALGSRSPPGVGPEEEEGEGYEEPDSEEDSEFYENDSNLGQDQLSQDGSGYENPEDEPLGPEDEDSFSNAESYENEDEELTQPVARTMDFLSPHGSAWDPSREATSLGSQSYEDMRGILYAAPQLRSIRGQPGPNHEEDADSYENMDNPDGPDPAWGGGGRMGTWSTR

FMC63 artificial CAR19: the cytotoxicity, RS4;11 cells, CAR19 T cell:tumor cell 5:1, donor 1, 4 h co-culture (calcein AM/PI flow cytometry) is 45.8%; the cytotoxicity, RS4;11 cells, CAR19 T cell:tumor cell 5:1, donor 2, 4 h co-culture (calcein AM/PI flow cytometry) is 65.6%; the cytotoxicity, RS4;11 cells, CAR19 T cell:tumor cell 10:1, donor 1, 4 h co-culture (calcein AM/PI flow cytometry) was 55.8%; the cytotoxicity, RS4;11 cells, CAR19 T cell:tumor cell 10:1, donor 2, 4 h co-culture (calcein AM/PI flow cytometry) is 77.1%. In addition, the cytotoxicity, Raji cells, CAR19 T cell:tumor cell 1:1, donor 1, 4 h co-culture (calcein AM/PI flow cytometry) was 4.17%; the cytotoxicity, Raji cells, CAR19 T cell:tumor cell 1:1, donor 2, 4 h co-culture (calcein AM/PI flow cytometry) is 46.4%; the cytotoxicity, Raji cells, CAR19 T cell:tumor cell 2:1, donor 1, 4 h co-culture (calcein AM/PI flow cytometry) is 25.3%; the cytotoxicity, Raji cells, CAR19 T cell:tumor cell 2:1, donor 2, 4 h co-culture (calcein AM/PI flow cytometry) is 59.9%. Besides, the percentage of CD19 positive RS4;11 cells remaining after 24 h co-culture with CAR-T cells stood at 45.1% and the percentage of CD19 positive Raji cells remaining after 24 h co-culture with CAR-T cells came out at 7.42%.
